# According to doi:10.1101/2020.10.12.336495 (bioRxiv, 2020):
# B1: Saccharomyces cerevisiae vacuolar transient receptor potential yeast 1 (TRPY1) channel, full length (natural protein, UniProt Q12324 1-675, looked up)
# chain: MVSANGDLHLPISNEQCMPENNGSLGFEAPTPRQILRVTLNLKYLIDKVVPIVYDPNDIVCDHSEILSPKVVKLAYEACGGNPKDKANKRKYQSVIIFSLLKVCEWYSILATMEVHNAKLYETRNLASQQLCKLLIEREETRDLQFLFMQLLLRRYVINENDEDQEPLNALELATDMHCTTVIGSSGFQRCLKWIWRGWIVQNGLDPTTFIKDDSLAEVSLISHFNPVRLKAPVYQNYLQMIFSFLFLGLYTLVVNGKDSERVQSFDLLESIFYVFNTGFILDELTKLYYIGYAHLSFWNLFNDTTYLIITFAMGFRAMSVTPLNAKYSSEDWDKISYRVLSCAAPFVWSRLLLYLESQRFIGIMLVILKHMMKESIVFFFLLFLIMIGFTQGFLGLDSADGKRDITGPILGNLTITVLGLGSFDVFEEFAPPYAAILYYGYYFIVSVILLNILIALYSTAYQKVIDNADDEYMALMSQKTLRYIRAPDEDVYVSPLNLIEVFMTPIFRILPPKRAKDLSYTVMTIVYSPFLLLISVKETREARRIKYNRMKRLNDDANEYDTPWDLTDGYLDDDDGLFSDNRNSGMRATQLKNSRSLKLQRTAEQEDVHFKVPKKWYKNVKKCSPSFEQYDNDDTEDDAGEDKDEVKELTKKVENLTAVITDLLEKLDIKDKKE
# Molecular target: the molecule itself
# Assay: cryo-EM structure
protein,measurement,value
B1,stoichiometry N,4
